Numbering of substitutions follows the chain as printed.

32 molecules from patent US20260209362A1 (VIB VZW, published 2026) can be followed below.

For this assay, the target named is T1, human IL-12Rβ2 (human, UniProt Q99665 24-862).
T1 construct: Expressed on HEK293T cells transiently transfected with a pcDNA3 plasmid (Genscript clone OHu21785); also called hIL-12RB2; IL-12 receptor β2 subunit
T1 sequence: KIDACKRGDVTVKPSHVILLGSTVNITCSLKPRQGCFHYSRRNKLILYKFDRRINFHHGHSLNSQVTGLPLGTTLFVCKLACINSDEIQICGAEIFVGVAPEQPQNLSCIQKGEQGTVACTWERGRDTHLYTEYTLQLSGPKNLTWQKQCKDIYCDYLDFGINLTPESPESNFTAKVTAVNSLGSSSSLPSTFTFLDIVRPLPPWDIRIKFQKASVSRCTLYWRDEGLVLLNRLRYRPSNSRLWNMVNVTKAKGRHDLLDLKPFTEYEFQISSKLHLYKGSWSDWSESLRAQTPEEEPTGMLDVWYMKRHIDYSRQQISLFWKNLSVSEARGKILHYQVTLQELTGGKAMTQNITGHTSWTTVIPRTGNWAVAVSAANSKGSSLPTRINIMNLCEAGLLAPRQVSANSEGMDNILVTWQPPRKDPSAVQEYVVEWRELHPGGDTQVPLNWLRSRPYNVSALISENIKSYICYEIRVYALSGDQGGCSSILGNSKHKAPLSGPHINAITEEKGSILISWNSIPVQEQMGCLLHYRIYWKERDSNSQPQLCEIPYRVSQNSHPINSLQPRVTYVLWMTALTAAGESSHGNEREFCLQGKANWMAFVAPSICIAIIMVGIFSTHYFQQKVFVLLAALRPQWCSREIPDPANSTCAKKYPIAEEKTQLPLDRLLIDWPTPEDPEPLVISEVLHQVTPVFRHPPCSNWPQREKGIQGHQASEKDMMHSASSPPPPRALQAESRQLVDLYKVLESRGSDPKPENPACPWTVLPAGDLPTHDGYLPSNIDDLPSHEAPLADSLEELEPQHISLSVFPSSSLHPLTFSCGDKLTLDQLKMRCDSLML
The experiment in a line: flow cytometry, P.E. on transfected HEK293T cells. On the technique in general: Flow cytometry measures light scatter and fluorescence of single cells or particles in a stream.

B1: anti-IL-12Rβ2 VHH clone 3CAHS41 (VHH, not shown: small tags and cut ends)
VHH: QVQLQESGGGLVQAGDSLRLSCAASGRTFDTYIVGWFRQAPGKEREFVSALSWSDDTTIRDDSLRGRFTISRDNAKNTVYLLMNSLKPEDTAVYYCAAKAKPPAATWSSYRNREWYDYWGQGTQVTVSS
notes: periplasmic extract
Regarding B1, the “% cells bound” value stood at 43.3% and the dMFI was 1070.

B2: anti-IL-12Rβ2 VHH clone 3CRHS99 (VHH, not shown: small tags and cut ends)
VHH: QVQLQESGGGLVQPGGSLRLSCKASGFTFSTYAMSWVRQAPGKGLEWVSAINSGGLSTDYADSVEGRFTISRDDAKNMLFLQMNSLKAEDTARYYCAKYEDCSDYMCHRDRAGYWGQGTQVTVSS
notes: periplasmic extract
For the molecule B2, the “% cells bound” value was 42.1% and the dMFI was determined as 980.

B3: anti-IL-12Rβ2 VHH clone 3CRHS106 (VHH, not shown: small tags and cut ends)
VHH: B2 VHH with I51V, A88P
notes: periplasmic extract
Regarding B3, the “% cells bound” value amounted to 43.3% and the dMFI came to 1110.

B4: anti-IL-12Rβ2 VHH clone 3CRHS31 (VHH, not shown: small tags and cut ends)
VHH: QVQLQESGGGLVQAGGSLRLSCAASGFTFSTYAMSWVRQAPGKGLEWVSSVNSGGLSTDYADSVEGRFTISRDDAKNMLFLQMNSLKPEDTARYYCAKYEDCSDYVCDRAGYWGQGTQVTVSS
notes: periplasmic extract
B4: the “% cells bound” value was 42.8% and the dMFI amounted to 977.

B5: anti-IL-12Rβ2 VHH clone 3CRHS51 (VHH, not shown: small tags and cut ends)
VHH: B4 VHH with A14P, S50A, S85R
notes: periplasmic extract
Take B5: the “% cells bound” value is 46% and the dMFI was determined as 1240.

B6: anti-IL-12Rβ2 VHH clone 3CAHS142 (VHH, not shown: small tags and cut ends)
VHH: QVQLQESGGGLVQAGESLTLSCIASGVIKDYAMGWFRQAPGKEREFVAAISWSGVSIYYADSVKGRFTISRDNAKNTVYLQMNSLEPEDTAVYYCAGTEGAYTVAGGSTFGYDMDYWGKGTQVTVSS
notes: periplasmic extract
Take B6: the “% cells bound” value amounted to 40.9% and the dMFI came to 912.

B7: anti-IL-12Rβ2 VHH clone 3CRHS142 (VHH, not shown: small tags and cut ends)
VHH: QVQLQESGGGLVQAGGSLRLSCVSSQTLVGIEAMGWYRQAPGKQRELVALITLNGGTFYADSVKGRFTISRDVAEHMLYLEMNSLNPEDTAVYFCVAGVESDNEEPTYWGQGTQVTVSS
notes: periplasmic extract
For B7, the “% cells bound” value amounted to 1.02% and the dMFI worked out at 210.

B8: anti-IL-12Rβ2 VHH clone 3CRHS166 (VHH, not shown: small tags and cut ends)
VHH: B7 VHH with A14S
notes: periplasmic extract
For B8, the “% cells bound” value worked out at 2.11% and the dMFI came out at 266.

B9: anti-IL-12Rβ2 VHH clone 3CRHS156 (VHH, not shown: small tags and cut ends)
VHH: B7 VHH with A14S, T68A
notes: periplasmic extract
Turning to B9, the “% cells bound” value came to 1.51% and the dMFI worked out at 222.

B10: anti-IL-12Rβ2 VHH clone 2CRHS4 (VHH, not shown: small tags and cut ends)
VHH: B7 VHH with A14P, E75G
notes: periplasmic extract
B10: the “% cells bound” value was found to be 3.55% and the dMFI worked out at 254.

B11: anti-IL-12Rβ2 VHH clone 3CRHS67 (VHH, not shown: small tags and cut ends)
VHH: B7 VHH with R19T
notes: periplasmic extract
In the case of B11, the “% cells bound” value was determined as 7.11% and the dMFI worked out at 443.

B12: anti-IL-12Rβ2 VHH clone 3CAHS79 (VHH, not shown: small tags and cut ends)
VHH: QVQLQESGGGLVQPGGSLRLTCVASGFPFSTHAMSWVRQPPGKGREWISAINSGGDSTDYADSVMGRFTISRDNAKNTVYLQMNSLKSEDTAVYYCAKYEDCSDYDCSSRASWGQGTQVTVSS
notes: periplasmic extract
B12: the “% cells bound” value came to 46.1% and the dMFI was 1230.

B13: anti-IL-12Rβ2 VHH clone 3CAHS171 (VHH, not shown: small tags and cut ends)
VHH: B12 VHH with V93A
notes: periplasmic extract
Regarding B13, the “% cells bound” value came to 47.5% and the dMFI is 1280.

B14: anti-IL-12Rβ2 VHH clone 3CRHS2 (VHH, not shown: small tags and cut ends)
VHH: QVQLQESGGGLVQLGGSLTLSCAASGSAALIFLMSWYRQAPGKQRELVAEVSRYGSTTYADSVEGRFTISRDNAKNIVDLQMNSLKPEDTAVYYCKADQYYGDSLRSSWGRGTQVTVSS
notes: periplasmic extract
Consider B14, for which the “% cells bound” value is 44.5% and the dMFI was 1150.

B15: anti-IL-12Rβ2 VHH clone 3CRHS184 (VHH, not shown: small tags and cut ends)
VHH: B14 VHH with L14A, T19V, V115L
notes: periplasmic extract
As to B15, the “% cells bound” value came to 33.3% and the dMFI stood at 625.

B16: anti-IL-12Rβ2 VHH clone 3CRH59 (VHH, not shown: small tags and cut ends)
VHH: QVQLQESGGGLVQPGGSLRLSCTASGFAFSSYWMYWVRQTPGKGFEWVSVVNPGGEITYYGDSMEDRFTISRDNAKNTLYLQMNSLKPEDTGLYYCARDRTTIDYTRTYYRGGQGTQVTVSS
notes: periplasmic extract
For the molecule B16, the “% cells bound” value was determined as 46.1% and the dMFI turned out to be 1170.

B17: anti-IL-12Rβ2 VHH clone 3CAH32 (VHH, not shown: small tags and cut ends)
VHH: QVQLQESGGGLVQPGGSLRLSCAASGSILRINLMGWYRQVPGKQRELVAEMSTGGSTTYVDSVKGRFTISRDNAKNTVYLQMNSLKPEDTAVYYCNAKAWQLGRLENDDWGQGTQVTVSS
notes: periplasmic extract; also called 20357
Consider B17, for which the “% cells bound” value stood at 40% and the dMFI turned out to be 742.

B18: anti-IL-12Rβ2 VHH clone 3CAHS102 (VHH, not shown: small tags and cut ends)
VHH: B17 VHH with K64E
notes: periplasmic extract
As to B18, the “% cells bound” value was 44.7% and the dMFI is 1090.

B19: anti-IL-12Rβ2 VHH clone 2CRH41 (VHH, not shown: small tags and cut ends)
VHH: QVQLQESGGGLVQPGGSLRLSCTASGFAFSSYWMYWVRQSPEKGFEWVSVVDTDGGITYYADSVKGRFTISRDNAKNTLYLQMNSLKPQDTALYYCARDRTTLEYTRTYYRTGQGTQVTVSS
notes: periplasmic extract; also called 20365
For the molecule B19, the “% cells bound” value turned out to be 31.6% and the dMFI came out at 583.

B20: anti-IL-12Rβ2 VHH clone 3CRHS163 (VHH, not shown: small tags and cut ends)
VHH: B19 VHH with S31T, V37I, D52N, D54G, G56D, Q89E, L103M, E104S, T112G
notes: periplasmic extract
Consider B20, for which the “% cells bound” value stood at 43.7% and the dMFI was found to be 1150.

B21: anti-IL-12Rβ2 VHH clone 3CAHS39 (VHH, not shown: small tags and cut ends)
VHH: QVQLQESGGGLVQAGGSLRLSCAASGRTINAYIMGWFRQAPGKEREFVAAVSGSGGSTYYADSVKGRFTISRDNAKNTVNLQMDNLRSEDTDVYYCAATYESVYLQNPGQYDYWGQGTQVTVSS
notes: periplasmic extract
For the molecule B21, the “% cells bound” value is 39% and the dMFI worked out at 918.

B22: anti-IL-12Rβ2 VHH clone 3CAHS124 (VHH, not shown: small tags and cut ends)
VHH: B21 VHH with A14P
notes: periplasmic extract
For B22, the “% cells bound” value is 46.3% and the dMFI came to 1200.

B23: anti-IL-12Rβ2 VHH clone 3CAHS43 (VHH, not shown: small tags and cut ends)
VHH: B21 VHH with L11S, Q106R
notes: periplasmic extract
Consider B23, for which the “% cells bound” value was 47.6% and the dMFI was 1350.

B24: anti-IL-12Rβ2 VHH clone 3CAHS52 (VHH, not shown: small tags and cut ends)
VHH: B21 VHH with L11S
notes: periplasmic extract
Regarding B24, the “% cells bound” value came to 44.3% and the dMFI stood at 1110.

B25: anti-IL-12Rβ2 VHH clone 3CAHS150 (VHH, not shown: small tags and cut ends)
VHH: B21 VHH with L11S, I33V, V51I
notes: periplasmic extract
Take B25: the “% cells bound” value amounted to 47.4% and the dMFI was found to be 1270.

B26: anti-IL-12Rβ2 VHH clone 3CAHS53 (VHH, not shown: small tags and cut ends)
VHH: B21 VHH with Q13E, A14P, N74S
notes: periplasmic extract
Regarding B26, the “% cells bound” value is 49.3% and the dMFI came out at 1460.

B27: anti-IL-12Rβ2 VHH clone 3CRH25 (VHH, not shown: small tags and cut ends)
VHH: QVQLQESGGGLVQAGDSLRLSCTASGHTFSRYTTIGWFRQAPGKDREFVAAIRWSGDITDYADAVKGRFTISRDNVKNTVYLQMNSLNPEDTAVYYCARGYSEYGVLSRNRGLYAYWGQGTQVTVSS
notes: periplasmic extract
Turning to B27, the “% cells bound” value stood at 34.8% and the dMFI was 620.

B28: anti-IL-12Rβ2 VHH clone 3CRH64 (VHH, not shown: small tags and cut ends)
VHH: B27 VHH with D16G, M84T
notes: periplasmic extract
On to B28, for which the “% cells bound” value came out at 31% and the dMFI came out at 645.

B29: anti-IL-12Rβ2 VHH clone 3CRHS77 (VHH, not shown: small tags and cut ends)
VHH: B27 VHH with D16G, R31S, D45E, R53G, D74H, K77E
notes: periplasmic extract
For the molecule B29, the “% cells bound” value was found to be 37.7% and the dMFI was 867.

B30: anti-IL-12Rβ2 VHH clone 3CAHS170 (VHH, not shown: small tags and cut ends)
VHH: QVQLQESGGGLVQAGGSLRLSCVASGRTFSSYAMGWFRQGPGKEREFVAAISWSGVSIYYADSVKGRFTISRDNAKNTVYLQMNSLEPEDTAVYYCAGTEGAYTVAGGSTFGYDMDYWGKGTQVTVSS
notes: periplasmic extract
Take B30: the “% cells bound” value turned out to be 38.3% and the dMFI is 809.

B31: anti-IL-12Rβ2 VHH clone 3CAH48 (VHH, not shown: small tags and cut ends)
VHH: B30 VHH with V23A, I58T, E87R, G98A
notes: periplasmic extract; also called 20360
Turning to B31, the “% cells bound” value was found to be 39.4% and the dMFI was determined as 801.

B32: anti-IL-12Rβ2 VHH clone 2CAH27 (VHH, not shown: small tags and cut ends)
VHH: B30 VHH with L11S, A14S
notes: periplasmic extract
Consider B32, for which the “% cells bound” value was 36.7% and the dMFI worked out at 668.
